From patent publication US11325952B2, “Light-gated signaling modulation” (Korea University Research and Business Foundation, priority 2016, dated 2022) come the findings set out here.

One assay has as its system cortical slice culture. The assay can be described thus: Cal-Light test in cortical slice culture (EGFP reporter). The class given is cell-based. The note with it: further increase of neuronal activity by bicuculine application. From the text: FIG. 18. Cal-Light test in cortical slice culture. AAV expressing Cal-Light constructs and EGFP reporter were infected to cortical slice culture at DIV3 (Days in vitro). […] Examples of action potentials were plotted at the top left panel. Electrical stimulation reliably triggered action potentials measured in layer 2/3 pyramidal neurons. Two days later, slices were fixed and images were taken by confocal microscopy. […] Blue light or high frequency stimuli alone was not able to increase the level of EGFP expression.
[…] Cortical slice culture were made at postnatal day 3 and AAV expressing Cal-Light constructs including an EGFP reporter were infected to slices at DIV 3 (Days in vitro). After 12 days of expression, a bipolar stimulation electrode was placed in layer 2/3. […] This stimulation protocol was repeated 30 times, resulting in triggering about 300 action potentials in total. Two days later, slices were fixed and gene expression pattern was imaged by confocal microscopy.

The test system of assay [1] is hippocampal culture neurons. Kind of assay: Cal-Light test in dissociated hippocampal culture neurons (EGFP reporter). The class given is cell-based, rat.
For assay [2], the system named is HEK293T cells. Kind of assay: SEAP chemiluminescent assay of BLITz constructs, light-induced gene expression. The class given is cell-based. The note with it: for light-induced gene expression: blue light; for background (baseline) gene expression level: dark state. On the procedure:
HEK293T cells were grown in high glucose Dulbecco's Modified Eagle Medium (DMEM) (Gibco, CA, USA) containing 10% fetal bovine serum (Cat #10438-018, Gibco) and 1% penicillin-streptomycin (Invitrogen, NY, USA). Cells were incubated at 37° C. and under 10% CO2 conditions. For the experiment, all dishes and coverslip were pre-coated with a 1 mg/ml Poly-D-Lysine hydrobromide (Cat #P0899, Sigma-Aldrich, St. Louis, Mo., USA) solution for 2 hrs. After 0.25% trypsin (Cat #25200, Gibco) treatment for 2 min, detached cells were collected and the total cell numbers were counted. Dissociated cells were plated at 2×10^5 cells per 12 mm coverslip. 24 hrs later, DNA plasmid vectors were transfected using the calcium phosphate transfection kit (Clontech, CA, USA). The mixture of the DNA solution was slowly added into 2× Hepes Buffered Saline. After 1 hr incubation, precipitated solutions were added into each well.
Blue light was illuminated by 465 nm wavelength blue LED array (LED wholesalers, Hayward, Calif., USA) that was controlled by a high-accuracy digital electronic timer (Model 451, GraLab, Centerville, Ohio, USA). The LED array was installed inside the 37° C. and 10% CO2 incubator. One transparent blank plate with 2 cm height was inserted between the LED source and the sample to inhibit potential undesirable heating caused by the direct contact of the LED. In the experimental setup, the power of blue light at the specimen was 1.7 mW, measured by a power meter (PM100D, ThorLabs, Newton, N.J., USA). To make a dark condition, all lights were prevented by wrapping culture plates with an aluminum foil, and all experimental procedures were carried out under dim red light.
For the quantification of gene-expression levels, a secreted embryonic alkaline phosphatase (SEAP) chemiluminescent assay was used. All reagents for the SEAP assay were purchased from InvivoGen (San Diego, Calif., USA). 40 μl of sample was collected from the medium of each well and transferred into 96-wells plate. Samples were pre-heated in a 60° C. incubator for 10 m to inhibit the activity of endogenous alkaline phosphatase. All mixtures were added into a single master tube including SEAP substrates and L-homoarginine. The mixed solutions were carefully added into each sample onto 96-wells plate without bubbles. The chemiluminescence of each sample was measured by a micro-plate reader (SpectraMax Plus 384, Molecular Devices, Sunnyvale, Calif., USA) at 37° C. at 405 nm. Assays were made at every 30 s for 2 hrs. All data and the calculation of Vmax were acquired by a SoftMax Pro 5.4.1 (Molecular Devices).
Thus, to prevent access by TEV protease in the dark state, but to allow complete access upon blue light illumination, the C-terminal region of the Jα-helix on AsLOV2 with the TEVseq was modified (FIG. 1a, b). […]

In assay [3] the test system is HEK293T cells. The assay can be described thus: EGFP expression reporter assay of BLITz constructs. The following applies: dark vs blue light. In kind it is cell-based. From the text: FIG. 1: Development of BLITz system. (a) Schematic drawing of BLITz proteins and simple diagram of light-induced gene expression. The major protein body, TM-CIBN-TEV-N-AsLOV2-TEVseq-TetR-VP16 (tTA), is targeted to a membrane with a transmembrane domain (TM). CRY2PHR-TEV-C is localized in the cytosol. Blue light causes interaction of CRY2PHR with CIBN, and TEV-C and TEV-N subsequently interact with each other. At the same time, TEVseq is unmasked due to conformational changes of AsLOV2 Jα-helix. When these two light-dependent processes are satisfied, TEVseq cleaves TetR-VP16, which translocates to the nucleus and causes targeted gene expression. (b) Design of TEVseq insertion into Jα-helix. […]
HEK293T cells were grown in high glucose Dulbecco's Modified Eagle Medium (DMEM) (Gibco, CA, USA) containing 10% fetal bovine serum (Cat #10438-018, Gibco) and 1% penicillin-streptomycin (Invitrogen, NY, USA). […] After 0.25% trypsin (Cat #25200, Gibco) treatment for 2 min, detached cells were collected and the total cell numbers were counted. […]
Blue light was illuminated by 465 nm wavelength blue LED array (LED wholesalers, Hayward, Calif., USA) that was controlled by a high-accuracy digital electronic timer (Model 451, GraLab, Centerville, Ohio, USA). […] In the experimental setup, the power of blue light at the specimen was 1.7 mW, measured by a power meter (PM100D, ThorLabs, Newton, N.J., USA). […]
(A reporter such as luciferase makes a cellular process visible.)

Consider `CN1CCc2cc3c(cc2[C@H]1[C@@H]1OC(=O)c2c1ccc1c2OCO1)OCO3` [bicuculine], for which the EGFP expression result with cortical slice culture is recorded as “significant increase”.

`NC1=N[C@H](O)[C@H]2[C@H]3O[C@]4(O)O[C@@H]([C@@H](O)[C@@]2(N1)[C@@H]4O)[C@]3(O)CO` [TTX, tetrodotoxin]: in assay [1], the “reporter EGFP gene expression level” value is “kept low”.

B1: BLITz-1: AsLOV2 Jα-helix C-terminal deletion variant with inserted TEV cleavage sequence, in TM-CIBN-TEV-N-AsLOV2-TEVseq-tTA fusion protein (protein)
chain: EFLATTLERIEKNFVITDPRLPDNPIIFASDSFLQLTEYSREEILGRNCRFLQGPETDRATVRKIRDAIDNQTEVTVQLINYTKSGKKFWNVFHLQPMRDYKGDVQYFIGVQLDGTERLHGAAEREAVCLIKKTAFQIA
modifications: BLITz-1 AsLOV2 (1-139 A.A.)
As for B1, in the assay on HEK293T cells [2], the light-induced gene expression result was “high” and the “background (baseline) gene expression level” value is given as “completely abolished”. Also, the EGFP signals result in the assay with HEK293T cells [3] is “detected only when blue light was illuminated”.

B2: BLITz-6: AsLOV2 Jα-helix C-terminal deletion variant with TEVseq; selected for the neuromodulation mapping system (protein)
chain: EFLATTLERIEKNFVITDPRLPDNPIIFASDSFLQLTEYSREEILGRNCRFLQGPETDRATVRKIRDAIDNQTEVTVQLINYTKSGKKFWNVFHLQPMRDYKGDVQYFIGVQLDGTERLHGAAEREAVCLIKKTAFQI
modifications: BLITz-6 AsLOV2 (1-138 A.A.)
As for B2, in the assay on HEK293T cells [2], the light-induced gene expression entry is reported as “high” and the “background (baseline) gene expression level” value is recorded as “completely abolished”. For the same molecule, in the assay on HEK293T cells [3], the EGFP signals result is listed as “detected only when blue light was illuminated”.
